Test [1] relates to C. difficile R20291 biofilm. Description: DNase, RNase and proteinase K digests of biofilm in liquid culture. The following applies: 15 minutes at the concentrations indicated (FIG. 8).
Test [2] deals with C. difficile strain 630Δerm. Description: Inhibition of biofilm formation in TC flasks. The settings on record: 10 mg/ml in the growth media; incubated statically for six days (FIG. 9).
The test system of test [3] is C. difficile 630Δerm biofilm. Description: DNase, RNase and proteinase K digests of biofilm (floc) in liquid culture.
Setting [4] is: 1 mg/ml, 15 minute treatment, room temperature.

B1: proteinase K: a proteinase used to digest biofilm constituents (protein, UniProt P06873 106-384, looked up)
Proteinase K: AAQTNAPWGLARISSTSPGTSTYYYDESAGQGSCVYVIDTGIEASHPEFEGRAQMVKTYYYSSRDGNGHGTHCAGTVGSRTYGVAKKTQLFGVKVLDDNGSGQYSTIIAGMDFVASDKNNRNCPKGVVASLSLGGGYSSSVNSAAARLQSSGVMVAVAAGNNNADARNYSPASEPSVCTVGASDRYDRRSSFSNYGSVLDIFGPGTSILSTWIGGSTRSISGTSMATPHVAGLAAYLMTLGKTTAASACRYIADTANKGDLSNIPFGTVNLLAYNNYQA
On to B1, for which, in test [1], the “Degradation of the biofilm” value is listed as “only degraded by DNase treatment”. Moreover, the “Formation of biofilm in liquid media” value in test [2] is listed as “decreases biofilm formation”. For the same molecule, the “Degradation of the biofilm (floc produced in static culture)” value in test [3] (setting [4]) is “partial degradation with proteinase K was not observed”; in test [3] (concentration increased to 2 mg/ml proteinase K (data not shown)), “partial degradation”; in test [3] (incubation time increased to 24 hours (data not shown)), “partial degradation”.

B2: RNase: RNaseA enzyme used to digest biofilm constituents (protein, UniProt P61823 27-150, looked up)
Ribonuclease pancreatic: KETAAAKFERQHMDSSTSAASSSNYCNQMMKSRNLTKDRCKPVNTFVHESLADVQAVCSQKNVACKNGQTNCYQSYSTMSITDCRETGSSKYPNCAYKTTQANKHIIVACEGNPYVPVHFDASV
Consider B2, for which the “Degradation of the biofilm” value in test [1] is “only degraded by DNase treatment”. For the same molecule, the “Degradation of the biofilm (floc produced in static culture)” value was “did not disrupt the biofilm” in test [3] (100 ug/ml, 15 minute treatment, room temperature) and “did not disrupt the biofilm” in test [3] (setting [4]).

Source of the values: patent US10039812B2, “Therapeutic for treating clostridium difficile infection” (priority 2012, dated 2018).
